# Results published in patent publication US20040120923A1 (ARES TRADING S A, published 2004).
# T1: IL-18Rβ extracellular domain (his6-tagged, produced in Cos cells) (UniProt O95256 20-356, limits assumed)
# T1 construct: extracellular domain; also called IL-18Rβ-ECD; signalling chain of IL-18R
# T1 sequence (looked up): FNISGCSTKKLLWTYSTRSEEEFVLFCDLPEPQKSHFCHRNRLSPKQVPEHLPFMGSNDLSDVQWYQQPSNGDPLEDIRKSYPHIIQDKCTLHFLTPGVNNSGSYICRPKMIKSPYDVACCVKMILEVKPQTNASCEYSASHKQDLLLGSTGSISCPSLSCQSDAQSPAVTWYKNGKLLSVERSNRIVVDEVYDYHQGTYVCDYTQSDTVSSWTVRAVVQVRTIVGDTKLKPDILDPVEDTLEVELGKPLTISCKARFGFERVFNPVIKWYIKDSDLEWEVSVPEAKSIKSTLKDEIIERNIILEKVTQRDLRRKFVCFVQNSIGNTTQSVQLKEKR
# Molecular target: T1, IL-18Rβ extracellular domain …
# Experiment: chemical cross-linking of the two extracellular domains without ligand, SDS-PAGE, Western blot with anti-his6 mAb against his6-tagged IL-18Rβ
binder,measurement,value
"IL-18Rα extracellular domain (produced in Cos cells) (receptor, UniProt Q13478 22-329, looked up, extracellular domain; It is glycosylated (Cos cell product); also called IL-18Rα-ECD) CTSRPHITVVEGEPFYLKHCSCSLAHEIETTTKSWYKSSGSQEHVELNPRSSSRIALHDCVLEFWPVELNDTGSYFFQMKNYTQKWKLNVIRRNKHSCFTERQVTSKIVEVKKFFQITCENSYYQTLVNSTSLYKNCKKLLLENNKNPTIKKNAEFEDQGYYSCVHFLHHNGKLFNITKTFNITIVEDRSNIVPVLLGPKLNHVAVELGKNVRLNCSALLNEEDVIYWMFGEENGSDPNIHEEKEMRIMTPEGKWHASKVLRIENIGESNLNVLYNCTVASTGGTDTKSFILVRKADMADIPGHVFTR",binding result,no binding
